Legend:
RSV F on RSV-A2 virus = RSV F on RSV-A2 virus (Respiratory syncytial virus, RSV-A2, UniProt P03420 26-574); test: cell-based or functional assay
[1] = target: RSV prefusion F (preF), DS-Cav1 (Respiratory syncytial virus, UniProt P03420 26-513); test: BLI, IgG on anti-human IgG sensor, 100 nM antigen
[2] = target: RSV postfusion F (postF), F ΔFP (Respiratory syncytial virus, UniProt P03420 26-513); test: BLI, IgG on anti-human IgG sensor, 100 nM antigen

B1: ADI-41561 (antibody, V domains shown)
VH: QVQLVQSGPTLVKPTQTLTLTCSFSGFSLTNTGVGVGWIRQPPGKALEWLALIYWDDDKRYRPSLKSRLTITKDTSKSQVVLTMTNMDPLDTATYYCAHRRSAYDPIYFDYWGQGALVTVSS
VL: DIRVTQSPSSVSASVGDRVTITCRASRSINNWLAWYQQKPGKAPKLLIYAASSLQSGVPSRFSGSGYGTDFTLTISSLQPEDFATYYCQQAHSFPSITFGQGTRLEIK
RSV F on RSV-A2 virus
  Neutralization IC50 (RSV subtype A): > 25 µg/mL
[1]
  Kd: 3.33 nM
[2]
  Kd: 0.516 nM

B2: ADI-41596 (antibody, V domains shown)
VH: QVQLQQWGAGLLKPSETLSLTCAVYGDSFSGYFWTWIRQPPGKGLEWIGEINLSGSTNYNPSLKSRVTILVDTSKNQFSLKLSSVTAADTAVYYCARGLHVSDDQDSSGYYFHPGSFDYWGQGTLVTVSS
VL: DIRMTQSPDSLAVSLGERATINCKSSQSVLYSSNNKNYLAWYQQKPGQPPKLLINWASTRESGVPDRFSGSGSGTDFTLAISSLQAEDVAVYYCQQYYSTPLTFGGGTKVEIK
notes: also called Ab 870; Antibody Number 870
RSV F on RSV-A2 virus
  Neutralization IC50 (RSV subtype A): 0.0537 µg/mL
[1]
  Kd: 0.305 nM
[2]
  Kd: 0.437 nM

B3: ADI-41581 (antibody, V domains shown)
VH: EVQLLESGSELKKPGASVKISCKTSGYTFTNYLMNWVRQAPGQGLEWMGWINTHTGNPTYAQDFTGRFVFSLDTSVNTAYLQISSLKAEDTAIYYCARDGLEAFSGYNGVDYWGQGTLVTVSS
VL: DIVMTQTPLSLPVTPGEPASISCRSSPSLLHSNGYNYLDWYLQKPGQSPQLLIYLGSTRASGVPDRFSGSGSGTDFTLRISRVEAEDVGVYYCMQALQIPLTFGQGTKLEIK
notes: also called Ab 855; Antibody Number 855
RSV F on RSV-A2 virus
  Neutralization IC50 (RSV subtype A): > 25 µg/mL
[1]
  Kd: 2.77 nM
[2]
  Kd: 0.361 nM

B4: ADI-41583 (antibody, V domains shown)
VH: QVQLVQSGAEVKKPGSSVKVSCKASGGTFSRHTITWVRQAPGQGLEWMGRIAPIVGFANYAQKFQGRVTITADKSTSTAYMELRSLRSEDTAVYYCARRSEDYYGLDVWGQGTTVTVSS
VL: DIVMTQSPSSLSASVGDRVTITCQASQDISNYLNWYQQKPGKAPKLLIYEASNLETGVPSRFSGSGSGTDFTFTISSLQPEDIATYYCQQYDNLFGGGTKLEIK
RSV F on RSV-A2 virus
  Neutralization IC50 (RSV subtype A): > 25 µg/mL
[1]
  Kd: 0.664 nM
[2]
  Kd: 0.381 nM

B5: ADI-41588 (antibody, V domains shown)
VH: QVQLVESGPTLVKPTQTLTLTCTFSGFSLSTNGVGVAWIRQPPGKALEWLAIIYWDDDKRYSPSLKSRLTITKDTSKNQVVLTVTDMDPVDTATYYCAHTIGVPAATRFDYWGQGTLVTVSS
VL: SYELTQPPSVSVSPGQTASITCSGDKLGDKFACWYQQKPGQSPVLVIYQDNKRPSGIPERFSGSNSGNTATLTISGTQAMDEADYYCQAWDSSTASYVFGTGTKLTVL
RSV F on RSV-A2 virus
  Neutralization IC50 (RSV subtype A): > 25 µg/mL
[1]
  Kd: 3.33 nM
[2]
  Kd: 0.505 nM

B6: ADI-41570 (antibody, V domains shown)
VH: QVQLVQSGAEVKKPGSSVKVSCMASGGTFSNSAINWVRQAPGQGLEWMGGTIPIFGAANYAQRFQARVTITADKSTSTAYMELTSLRSDDTAVYYCVRTPHRSSDHIWGSYRYFDSWGQGTLVTVSS
VL: QSVVTQEPSVSAAPGQKITISCSGSTSNIGINYVSWYQQFPGTAPKLLIYDNDKRPSGIPDRFSGSKSGTSATLGITGLQAGDEADYYCGTWDSSLSAGHIFGGGTKVTVL
notes: also called Ab 848; Antibody Number 848
RSV F on RSV-A2 virus
  Neutralization IC50 (RSV subtype A): 25 µg/mL
[1]
  Kd: 2.97 nM
[2]
  Kd: 1.12 nM

B7: ADI-41558 (antibody, V domains shown)
VH: EVQLLESGGGLVKPGGSLRLSCEVSGFPFSDYYVSWIRQAPGKGLEWLSYSSRGGIYTNYADSVKGRFTISRDNDKNSLFLQMNSLRAEDTAVYYCARDRSDIWSGRVGFDYWGQGTLVTVSS
VL: DIVMTQSPATLSLSPGERATLSCRASQSVSSSYLAWYQQKPGQAPRLLIYGASSRATGIPDRFSGSGSGTDFTLTISRLEPEDFAVYYCQQYNKSPPGYIFGPGTKVDIK
notes: also called Ab 840; Antibody Number 840
RSV F on RSV-A2 virus
  Neutralization IC50 (RSV subtype A): > 25 µg/mL
[1]
  Kd: 3.02 nM
[2]
  Kd: 0.7 nM

B8: ADI-41564 (antibody, V domains shown)
VH: QVQLVQSGAEVKKPGSSVKVSCKAFGGTLRRYALSWVRQAPGQGLEWMGGIIPVFGTRRYAQKFQGRITITADGSTSTASMEVSSLRFEDTAIYYCATVYFDFVSGPPPTYYYYYMDVWGKGTTVTVSS
VL: DIVMTQSPGTLSLSPGERATLSCRASQSVSSSYLAWYQQKPGQAPRLLIYGASSRATGIPDRFSGSGSGTDFTLTISRLEPEDFAVYYCQQYDSSLRVLTFGGGTKVDIK
notes: also called Ab 844; Antibody Number 844
RSV F on RSV-A2 virus
  Neutralization IC50 (RSV subtype A): > 25 µg/mL
[1]
  Kd: 4.44 nM
[2]
  Kd: 0.596 nM

B9: ADI-41593 (antibody, V domains shown)
VH: QVQLVQSGVEVKKPGESLKISCKGSGYSFTNYWIAWVRQMPGKGLEWMGIIYPGDSDTRYSPSFQGQVTISADKSISTAYVQWSSLKASDTAIYYCARGDILTNSGPDAFDIWGQGTMVTVSS
VL: DIQMTQSPSSFSASTGDRVTITCRASQAISSYLAWFQQKPGKAPKLLIYAASTLQSGVPSRFSGSGSGTDFTLTISCLQSEDFATYYCQQYYSYPLTFGGGTKVEIK
notes: also called Ab 867; Antibody Number 867
RSV F on RSV-A2 virus
  Neutralization IC50 (RSV subtype A): > 25 µg/mL
[1]
  Kd: 1.83 nM
[2]
  Kd: 0.53 nM

B10: ADI-41587 (antibody, V domains shown)
VH: QVQLVQSGAGLLKPSETLSLTCAVYGGSFSGYSWSWIRQPPGKGLEWIGEINYSVSTSYNSSLKSRVSISVDTSKNQFSLKLTSVTAADTAVYYCARVGGAVADWGQGTLVTVSS
VL: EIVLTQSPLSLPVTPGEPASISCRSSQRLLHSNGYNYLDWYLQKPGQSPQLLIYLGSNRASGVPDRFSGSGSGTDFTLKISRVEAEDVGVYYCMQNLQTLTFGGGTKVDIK
RSV F on RSV-A2 virus
  Neutralization IC50 (RSV subtype A): 0.664 µg/mL
[1]
  Kd: 1.4 nM
[2]
  Kd: 2.09 nM

B11: ADI-41580 (antibody, V domains shown)
VH: QVQLQQWGAGLLKPSETLSLTCAVYGGSFSGYYWSWIRQPPGKGLEWIGEMNHSGGSNYNPSFKSRVTISVDTSKKYFSLNLSSVTAADTAIYYCARTPFYYESTGYYYYYYGMDVWGQGTTVTVSS
VL: DIVMTQTPDSLAVSLGERATINCKSSQSVSHSSNNKNYLSWYQQKPGQPPKLLIYWASIRESEAPDRFTGSGSGTDFTLTISSLQAEDVAVYYCQQYYTAPITFGQGTRLEIK
notes: also called Ab 854; Antibody Number 854
RSV F on RSV-A2 virus
  Neutralization IC50 (RSV subtype A): 1.11 µg/mL
[1]
  Kd: 2.98 nM
[2]
  Kd: 1.17 nM

B12: ADI-41569 (antibody, V domains shown)
VH: EVQLLESGAEVKKPGSSVKVSCKASGGTFSTYAISWVRQAPGQGLEWMGGIIPVLGTTKYAQKFQDRVTITADESTSTAYMDLSGLRSDDTAVYYCARGVWGDCGRASCLFDWYFDLWGRGTLVTVSS
VL: EIVMTQSPATLSVSPGERVTLSCSASQTVSSNLAWYQQKPGQAPRLLIYGASIRATDIPARFSGSGSRTEFTLTISSLQSEDFAVYYCQQYNNRPPLTFGGGTKVEIK
notes: also called Ab 847; Antibody Number 847
RSV F on RSV-A2 virus
  Neutralization IC50 (RSV subtype A): > 25 µg/mL
[1]
  Kd: 3.3 nM
[2]
  Kd: 1.61 nM

B13: ADI-41592 (antibody, V domains shown)
VH: EVQLVESGSELKKPGASVKVSCKASGYTFRTYVMNWVRQAPGQGLEWMGWINTNTGNPTYAQGFTGRFVFSLDTSVSTAYLQISSLKAEDTAVYYCARESIDDYDSSGYGRTFDYWGQGTLVTVSS
VL: SYELTQPPSVSVSPGQTASIPCSGDKVGKTYVYWYQQTPGQSPGLVIYQDTKRPSGIPERFSGSSSGNTATLTISGTQTMDEADYYCQAWDTSTASYVFGTGTKLTVL
notes: also called Ab 866; Antibody Number 866
RSV F on RSV-A2 virus
  Neutralization IC50 (RSV subtype A): > 25 µg/mL
[1]
  Kd: 3.74 nM
[2]
  Kd: 0.44 nM

B14: ADI-41586 (antibody, V domains shown)
VH: QVQLQQWGAGLLKPSETLSLTCAVYGGSFSGYSWSWIRQPPGKGLEWIGDIDHDGSTYYNSSLKSRVTMSIDTSKNQFSLKLSSVTAADTAVYYCARVGGNSGYWGQGTLVTVSS
VL: not shown
notes: also called Ab 860; Antibody Number 860
RSV F on RSV-A2 virus
  Neutralization IC50 (RSV subtype A): 0.402 µg/mL
[1]
  Kd: 0.538 nM
[2]
  Kd: 0.779 nM

B15: ADI-41579 (antibody, V domains shown)
VH: QVQLVESGAEARKPGSSVKVSCKLSGGTFSTDPISWVRQAPGQGLEWMGRIIPLLGIANYAQKFQGRVTIIADKSTSTVYMELRNLRFEDTAVYFCARRGDGYYGMDVWGQGTTVTVSS
VL: QSVLTQPASVSGSPGQSITISCTGTSNDIGGYDYVSWYQQHPGKAPKLMIYDVHNRPSGVSNRFSGSKSGNTASLTISGLQAEDEADYYCSSFSDSGNLYVFGTGTKLTVL
RSV F on RSV-A2 virus
  Neutralization IC50 (RSV subtype A): 0.209 µg/mL
[1]
  Kd: 0.471 nM
[2]
  Kd: 0.36 nM
